Like-named read-outs stand apart in the source and are kept apart here.

Assay [1] concerns the target T1, human properdin (human, UniProt P27918 28-469). Nature of the assay: ELISA.
For assay [2], the target named is T1, human properdin. Kind of assay: ELISA. This is another data set of the same source.
Assay [3] concerns the target T1, human properdin. Kind of assay: ELISA. The source holds these as a separate data set.
For assay [4], the target named is T1, human properdin. Nature of the assay: ELISA, inhibition of properdin binding to C3b.

T1 sequence (P27918 28-469): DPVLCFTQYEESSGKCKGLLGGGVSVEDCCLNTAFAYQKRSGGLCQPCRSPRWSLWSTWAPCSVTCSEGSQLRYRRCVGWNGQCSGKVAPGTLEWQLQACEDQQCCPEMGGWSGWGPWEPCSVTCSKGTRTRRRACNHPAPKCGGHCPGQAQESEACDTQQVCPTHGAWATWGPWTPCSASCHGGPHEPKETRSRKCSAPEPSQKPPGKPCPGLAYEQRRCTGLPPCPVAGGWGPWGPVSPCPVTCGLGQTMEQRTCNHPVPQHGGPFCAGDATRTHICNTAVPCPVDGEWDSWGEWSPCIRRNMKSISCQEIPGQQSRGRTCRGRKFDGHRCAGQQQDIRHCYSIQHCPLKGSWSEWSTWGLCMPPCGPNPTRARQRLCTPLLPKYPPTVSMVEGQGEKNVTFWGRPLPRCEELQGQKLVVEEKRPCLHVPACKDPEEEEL

B1: BAP010hum10 (humanized anti-properdin monoclonal antibody) (antibody, V domains shown)
VH: QVQLQESGPGLVKPSQTLSLTCTVSGYIFTNYPIHWVRQATGQGLEWMGFIDPGGGYDEPDERFRDRVTITADKSTSTAYMELSSLRSEDTAVYYCARRGGGYYLDYWGQG
VL: DIQMTQSPSSLSASVGDRVTITCRASQDISFFLNWYQQKPGKAPKLLIYYTSRYHSGIPPRFSGSGYGTEFTFTISSLEAEDAATYYCQHGNTLPWTFGQG
As for B1, binding with human properdin [1] was put at a Kd of 0.0236 nM. In other words, the picomolar range.

B2: BAP010hum03 (humanized anti-properdin monoclonal antibody) (antibody, V domains shown)
VH: EVQLVQSGAEVKKPGESLRISCKGSGYIFTNYPIHWIRQSPSRGLEWLGFIDPGGGYDEPDERFRDRVTISADKSISTAYLQWSSLKASDTAMYYCARRGGGYYLDYWGQG
VL: DIQMTQSPSSLSASVGDRVTITCRASQDISFFLNWYQQKPGKAPKLLIYYTSRYHSGVPSRFSGSGSGTEFTLTISSLQSEDFAVYYCQHGNTLPWTFGQG
Molecule B2 had a Kd with human properdin [1] of 0.0207 nM.

B3: BAP010hum02 (humanized anti-properdin monoclonal antibody) (antibody, V domains shown)
VH: QVQLQESGPGLVKPSQTLSLTCTVSGYIFTNYPIHWVRQAPGKGLEWVSFIDPGGGYDEPDERFRDRVTISVDTSKNQFSLKLSSVTAADTAVYYCARRGGGYYLDYWGQG
VL: EIVLTQSPATLSLSPGERATLSCRASQDISFFLNWFQQRPGQSPRRLIYYTSRYHSGIPPRFSGSGYGTDFTLTINNIESEDAAYYFCQHGNTLPWTFGQG
In the assay with human properdin [1], B3 showed a Kd of 0.0138 nM.

B4: NM9401-F(ab′)2 (other)
VH: QVQLQQSAPELARPGASVKMSCTASGYIFTNYPIHWVKQRPGQGLEWIGFIDPGGGYDEPDERFRDRATLTADKSSSTAYMQLSSLTSEDSAIYYCARRGGGYYLDYWGQGTTLTVSSAKTT
VL: DIQMTQTTSSLSASLGDRVTISCRASQDISFFLNWYQQKPDGTVKLLIYYTSRYHSGVPSRFSGSGSGTDFSLTINNLEQEDFATYFCQHGNTLPWTFGGGTKLEIKRADAAPTVSIFPPSSEQLTSGGASVVCFLNN
In the assay with human properdin [2], B4 gave a Kd of 0.118 nM.

B5: NM9401-IgG (murine anti-properdin monoclonal antibody, IgG1) (antibody, V domains shown)
VH: QVQLQQSAPELARPGASVKMSCTASGYIFTNYPIHWVKQRPGQGLEWIGFIDPGGGYDEPDERFRDRATLTADKSSSTAYMQLSSLTSEDSAIYYCARRGGGYYLDYWGQGTTLTVSS
VL: DIQMTQTTSSLSASLGDRVTISCRASQDISFFLNWYQQKPDGTVKLLIYYTSRYHSGVPSRFSGSGSGTDFSLTINNLEQEDFATYFCQHGNTLPWTFGGGTKLEIKR
On to B5, for which the dissociation constant Kd with human properdin [2] amounted to 0.101 nM; with human properdin [3], 0.256 nM. For the same molecule, the concentration for half-maximal inhibition (IC50) in the assay with human properdin [4] was 10.7 nM.

B6: NM9401-Fab (Fab, V domains shown)
VH: QVQLQQSAPELARPGASVKMSCTASGYIFTNYPIHWVKQRPGQGLEWIGFIDPGGGYDEPDERFRDRATLTADKSSSTAYMQLSSLTSEDSAIYYCARRGGGYYLDYWGQGTTLTVSS
VL: DIQMTQTTSSLSASLGDRVTISCRASQDISFFLNWYQQKPDGTVKLLIYYTSRYHSGVPSRFSGSGSGTDFSLTINNLEQEDFATYFCQHGNTLPWTFGGGTKLEIKR
In the case of B6, the Kd in the assay with human properdin [2] turned out to be 0.103 nM.

Source of the values: patent US20140186348A1 (published 2014).
